Assays:
Reference peptide no. 12 [1] = target: T1, Reference peptide no. 12; assay: peptide microarray (RepliTope)
T1 construct: hIL-2 15-mer, first library, on microarray; also called peptide 12
T1 peptide: PKLTRMLTFKFYMPK
Procedure: (§1) Additional incubations are with unrelated antibodies from the same isotype (mouse control IgG2a/lambda and mouse control IgG2a/kappa), and secondary antibodies (anti-mouse IgG (Thermo 84545, label DL650) or anti-mouse IgG (JIR 115-175-072, Label Cy5)) to assess unspecific binding due to the detection antibody. The experiments are performed essentially as described in Maksimov P, et al. 2012, PLoS One 7:e34212. doi:10.1371/journal. pone. 0034212.
(§2) The determination of peptide-antibody binding was performed by RepliTope-analysis where the peptide microarray (triplicate) was incubated with the primary antibody followed by a fluorescently labelled secondary antibody directed against the Fc-part of the primary one. All steps were performed on a TECAN microarray processing station enabling highly reliable and reproducible washing and incubation steps. After performing the incubation steps and subsequent to the final washing steps (to remove the unbound secondary antibodies) the microarrays were dried using a nitrogen stream and scanned in a high resolution microarray scanning system with appropriate wavelength settings. Control incubations were performed with an unrelated antibody having the same isotype to exclude false positive signals.
(§3) The resulting images were analyzed und quantified using spot-recognition software GenePix (Molecular Devices). For each spot, the mean signal intensity was extracted (between 0 and 65535 arbitrary units). For further data evaluation, the MMC2 values were determined. The MMC2 equals the mean value of all three instances on the microarray. Except the coefficient of variation (CV)—standard-deviation divided by the mean value—is larger 0.5, in this case the mean of the two closest values (MC2) is assigned to MMC2.

Reference peptide no. 13 = target: T2, Reference peptide no. 13; assay: peptide microarray (RepliTope)
T2 construct: hIL-2 15-mer, first library, on microarray; also called peptide 13
T2 peptide: TRMLTFKFYMPKKAT
Procedure: as §1, §2, §3

Reference peptide no. 25 = target: T3, Reference peptide no. 25; assay: peptide microarray (RepliTope)
T3 construct: hIL-2 15-mer, first library, on microarray; also called peptide 25
T3 peptide: AQSKNFHLRPRDLIS
Procedure: as §1, §2, §3

Reference peptide no. 1 = target: T4, Reference peptide no. 1; assay: peptide microarray (RepliTope), 15-mers
T4 construct: hIL-2 15-mer, first library, on microarray; also called peptide 1
T4 peptide: APTSSSTKKTQLQLE
Procedure: as §1, §2, §3

Reference peptide no. 2 = target: T5, Reference peptide no. 2; assay: peptide microarray (RepliTope), 15-mers
T5 construct: hIL-2 15-mer, first library, on microarray; also called peptide 2
T5 peptide: SSSTKKTQLQLEHLL
Procedure: as §1, §2, §3

Reference peptide no. 3 = target: T6, Reference peptide no. 3; assay: peptide microarray (RepliTope), 15-mers
T6 construct: hIL-2 15-mer, first library, on microarray; also called peptide 3
T6 peptide: TKKTQLQLEHLLLDL
Procedure: as §1, §2, §3

Reference peptide no. 8 = target: T7, Reference peptide no. 8; assay: peptide microarray (RepliTope), 15-mers
T7 construct: hIL-2 15-mer, first library, on microarray; also called peptide 8
T7 peptide: QMILNGINNYKNPKL
Procedure: as §1, §2, §3

Reference peptide no. 11 = target: T8, Reference peptide no. 11; assay: peptide microarray (RepliTope), 15-mers
T8 construct: hIL-2 15-mer, first library, on microarray; also called peptide 11
T8 peptide: YKNPKLTRMLTFKFY
Procedure: as §1, §2, §3

Reference peptide no. 12 [2] = target: T1, Reference peptide no. 12; assay: peptide microarray (RepliTope), 15-mers
Procedure: as §1, §2, §3

Reference peptide no. 16 = target: T9, Reference peptide no. 16; assay: peptide microarray (RepliTope), 15-mers
T9 construct: hIL-2 15-mer, first library, parental Cys replaced by Ser, on microarray; also called peptide 16
T9 peptide: MPKKATELKHLQSLE
Procedure: as §1, §2, §3

Reference peptide no. 19 = target: T10, Reference peptide no. 19; assay: peptide microarray (RepliTope), 15-mers
T10 construct: hIL-2 15-mer, first library, parental Cys replaced by Ser, on microarray; also called peptide 19
T10 peptide: HLQSLEEELKPLEEV
Procedure: as §1, §2, §3

Reference peptide no. 21 = target: T11, Reference peptide no. 21; assay: peptide microarray (RepliTope), 15-mers
T11 construct: hIL-2 15-mer, first library, on microarray; also called peptide 21
T11 peptide: EELKPLEEVLNLAQS
Procedure: as §1, §2, §3

Reference peptide no. 23 = target: T12, Reference peptide no. 23; assay: peptide microarray (RepliTope), 15-mers
T12 construct: hIL-2 15-mer, first library, on microarray; also called peptide 23
T12 peptide: EEVLNLAQSKNFHLR
Procedure: as §1, §2, §3

Reference peptide no. 30 = target: T13, Reference peptide no. 30; assay: peptide microarray (RepliTope), 15-mers
T13 construct: hIL-2 15-mer, first library, on microarray; also called peptide 30
T13 peptide: NINVIVLELKGSETT
Procedure: as §1, §2, §3

Reference peptide no. 31 = target: T14, Reference peptide no. 31; assay: peptide microarray (RepliTope), 15-mers
T14 construct: hIL-2 15-mer, first library, parental Cys replaced by Ser, on microarray; also called peptide 31
T14 peptide: VIVLELKGSETTFMS
Procedure: as §1, §2, §3

Reference peptide no. 32 = target: T15, Reference peptide no. 32; assay: peptide microarray (RepliTope), 15-mers
T15 construct: hIL-2 15-mer, first library, parental Cys replaced by Ser, on microarray; also called peptide 32
T15 peptide: LELKGSETTFMSEYA
Procedure: as §1, §2, §3

Reference peptide no. 34 = target: T16, Reference peptide no. 34; assay: peptide microarray (RepliTope), 15-mers
T16 construct: hIL-2 15-mer, first library, parental Cys replaced by Ser, on microarray; also called peptide 34
T16 peptide: ETTFMSEYADETATI
Procedure: as §1, §2, §3

Reference peptide no. 36 = target: T17, Reference peptide no. 36; assay: peptide microarray (RepliTope), 15-mers
T17 construct: hIL-2 15-mer, first library, on microarray; also called peptide 36
T17 peptide: EYADETATIVEFLNR
Procedure: as §1, §2, §3

Reference peptide no. 40 = target: T18, Reference peptide no. 40; assay: peptide microarray (RepliTope), 15-mers
T18 construct: hIL-2 15-mer, first library, parental Cys replaced by Ser, on microarray; also called peptide 40
T18 peptide: LNRWITFSQSIISTL
Procedure: as §1, §2, §3

Reference peptide no. 41 = target: T19, Reference peptide no. 41; assay: peptide microarray (RepliTope), 15-mers
T19 construct: hIL-2 15-mer, first library, parental Cys replaced by Ser, on microarray; also called peptide 41
T19 peptide: NRWITFSQSIISTLT
Procedure: as §1, §2, §3

Reference peptide no. 47 = target: T20, Reference peptide no. 47; assay: peptide microarray (RepliTope), 15-mers
T20 construct: second library: peptide 11 with Y(65) to Ala; also called peptide 47
T20 peptide: YKNPKLTRMLTFKFA
Procedure: as §1, §2, §3

Reference peptide no. 49 = target: T21, Reference peptide no. 49; assay: peptide microarray (RepliTope), 15-mers
T21 construct: second library: peptide 13 with Y(65) to Ala; also called peptide 49
T21 peptide: TRMLTFKFAMPKKAT
Procedure: as §1, §2, §3

Reference peptide no. 56 = target: T22, Reference peptide no. 56; assay: peptide microarray (RepliTope), 15-mers
T22 construct: second library: peptide 20 with L(92) to Ala; parental Cys replaced by Ser; also called peptide 56
T22 peptide: SLEEELKPLEEVLNA
Procedure: as §1, §2, §3

Reference peptide no. 59 = target: T23, Reference peptide no. 59; assay: peptide microarray (RepliTope), 15-mers
T23 construct: second library: peptide 23 with L(92) to Ala; also called peptide 59
T23 peptide: EEVLNAAQSKNFHLR
Procedure: as §1, §2, §3

B1: NARA1 (antibody, mouse IgG2a, kappa, V domains shown)
VH: QVQLQQSGAELVRPGTSVKVSCKASGYAFTNYLIEWVKQRPGQGLEWIGVINPGSGGTNYNEKFKGKATLTADKSSSTAYMQLSSLTSDDSAVYFCARWRGDGYYAYFDVWGAGTTVTVSS
VL: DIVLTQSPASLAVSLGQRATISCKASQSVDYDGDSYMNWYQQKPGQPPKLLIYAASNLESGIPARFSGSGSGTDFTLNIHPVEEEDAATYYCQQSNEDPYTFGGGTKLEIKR
notes: Mouse monoclonal from hybridoma; Isotype controls used were mouse IgG2a; also called anti-IL2 (NARA1) antibody; monoclonal antibody NARA1
Reference peptide no. 12 [1]
  signal intensity after subtraction of control signal: 1130 AU
Reference peptide no. 13
  signal intensity after subtraction of control signal: 224 AU
Reference peptide no. 25
  signal intensity after subtraction of control signal: 0 AU
Reference peptide no. 1
  binding result: no binding
Reference peptide no. 2
  binding result: no binding
Reference peptide no. 3
  binding result: no binding
Reference peptide no. 8
  binding result: no binding
Reference peptide no. 11
  binding result: no binding
Reference peptide no. 12 [2]
  binding result: no binding
Reference peptide no. 16
  binding result: no binding
Reference peptide no. 19
  binding result: no binding
Reference peptide no. 21
  binding result: no binding
Reference peptide no. 23
  binding result: no binding
Reference peptide no. 30
  binding result: no binding
Reference peptide no. 31
  binding result: no binding
Reference peptide no. 32
  binding result: no binding
Reference peptide no. 34
  binding result: no binding
Reference peptide no. 36
  binding result: no binding
Reference peptide no. 40
  binding result: no binding
Reference peptide no. 41
  binding result: no binding
Reference peptide no. 47
  binding result: no binding
Reference peptide no. 49
  binding result: no binding
Reference peptide no. 56
  binding result: no binding
Reference peptide no. 59
  binding result: no binding
